Measured values: PMC12044695

Assays:
Experiment in all cases: ELISA; enzyme-linked lectin assay (ELLA): extracted glycoproteins immobilised at 4 μg/mL on high-binding 96-well plates, blocked with 0.5% PVA, probed 2 h at room temperature with WGAHRP or AuNP–WGAHRP (1 μg/mL WGAHRP) in PBS with 1 mM CaCl2 and 1 mM MgCl2, ABTS read at 405 nm; then the same plate probed with WGA antibodies and AlexaFluor 633 secondary antibodies (FLISA)
[1] = biological target: WGA-binding glycoproteins purified from NSC-34 cells in growth condition
[2] = biological target: WGA-binding glycoproteins purified from C2C12 cells in growth condition
[3] = biological target: WGA-binding glycoproteins purified from C2C12 cells in differentiation conditions
[4] = biological target: WGA-binding glycoproteins purified from NSC-34 cells in differentiation conditions
[5] = biological target: WGA-binding glycoproteins purified from NE-4C cells in growth condition

Measured: fluorescence intensity (FLISA) against WGAHRP (% lower than WGAHRP)

gold nanoparticle-conjugated WGAHRP (AuNP-MSA-WGAHRP conjugate) (from UniProt P00433 31-338)
50: all assays above
